{"source": "paper PMC3423979", "about": "(Nature chemical biology, 2012)", "molecules": {"B1": {"name": "FGFR-pTyr-peptide (peptide)", "peptide": "AGVSE[pY]ELPEDPR"}, "B2": {"name": "PPII-peptide (peptide)", "peptide": "YLQAPELPTKTRTS"}}, "key": {"[1]": {"biological_target": "CrkL SH2 (residues 1–105) (human) (UniProt P46109)", "sequence (P46109 1-105)": "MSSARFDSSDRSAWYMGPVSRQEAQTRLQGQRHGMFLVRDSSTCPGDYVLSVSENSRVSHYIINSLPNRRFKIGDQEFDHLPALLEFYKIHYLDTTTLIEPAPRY", "experiment": "ITC"}, "[2]": {"biological_target": "full-length CrkL (residues 1–303) (human) (UniProt P46109)", "sequence (P46109 whole entry, the tested form may be a part)": "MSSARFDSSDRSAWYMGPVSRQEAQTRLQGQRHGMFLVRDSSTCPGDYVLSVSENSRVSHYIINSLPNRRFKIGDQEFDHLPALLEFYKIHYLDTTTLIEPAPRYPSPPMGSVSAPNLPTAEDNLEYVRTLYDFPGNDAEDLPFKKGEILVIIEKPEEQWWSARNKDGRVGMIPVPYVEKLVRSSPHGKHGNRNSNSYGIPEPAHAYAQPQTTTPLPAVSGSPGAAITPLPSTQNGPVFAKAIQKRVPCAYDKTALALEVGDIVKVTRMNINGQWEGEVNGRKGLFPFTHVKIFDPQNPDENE", "experiment": "ITC"}, "[3]": {"biological_target": "CrkL SH2 (residues 1–105) (human, UniProt P46109 1-105)", "sequence (P46109 1-105)": "as the sequence (P46109 1-105) above", "experiment": "ITC"}, "[4]": {"biological_target": "full-length CrkL (residues 1–303) (human, UniProt P46109 1-303)", "sequence (P46109 whole entry, the tested form may be a part)": "as the sequence (P46109 whole entry, the tested form may be a part) above", "experiment": "NMR titration"}, "[5]": {"biological_target": "CrkL SH3^N (residues 120–188) (human, UniProt P46109 120-188)", "sequence (P46109 120-188)": "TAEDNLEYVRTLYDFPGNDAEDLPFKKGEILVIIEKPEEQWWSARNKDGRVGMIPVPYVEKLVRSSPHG", "experiment": "ITC"}, "[6]": {"biological_target": "phosphorylated (pTyr207) CrkL (human, UniProt P46109 1-303, phosphotyrosine at 207 (pTyr207))", "sequence (P46109 whole entry)": "as the sequence (P46109 whole entry, the tested form may be a part) above", "experiment": "ITC"}}, "note": "Where no end group is shown, it is not given here. [ ]: non-standard residue; d: D form. pY = N[C@@H](Cc1ccc(OP(=O)(O)O)cc1)C(=O)O"}
{"molecule": "CrkL-pTyr207-peptide", "values": [{"measurement": "Kd", "setting": "[1]", "value": 7, "unit": "µM"}, {"measurement": "Kd", "setting": "[2]", "value": 23, "unit": "µM"}]}
{"molecule": "B1", "values": [{"measurement": "binding result", "setting": "[3]", "value": "binds"}]}
{"molecule": "B2", "values": [{"measurement": "binding result", "setting": "[4]", "value": "binds"}, {"measurement": "binding result", "setting": "[5]", "value": "binds"}, {"measurement": "binding result", "setting": "[6]", "value": "binds"}]}
